This note sets out measurements from patent US7208171B2, “Injectable and bioadhesive polymeric hydrogels as well as related methods of enzymatic preparation” (Northwestern University, priority 2002, dated 2007).

Non-standard residues stand in square brackets, D forms with d. No end group written: not given here. Dopa = N[C@@H](Cc1ccc(O)c(O)c1)C(=O)O

The target of series [1] is T1, guinea pig liver transglutaminase (guinea pig, UniProt P08587 2-690).
T1 sequence (looked up): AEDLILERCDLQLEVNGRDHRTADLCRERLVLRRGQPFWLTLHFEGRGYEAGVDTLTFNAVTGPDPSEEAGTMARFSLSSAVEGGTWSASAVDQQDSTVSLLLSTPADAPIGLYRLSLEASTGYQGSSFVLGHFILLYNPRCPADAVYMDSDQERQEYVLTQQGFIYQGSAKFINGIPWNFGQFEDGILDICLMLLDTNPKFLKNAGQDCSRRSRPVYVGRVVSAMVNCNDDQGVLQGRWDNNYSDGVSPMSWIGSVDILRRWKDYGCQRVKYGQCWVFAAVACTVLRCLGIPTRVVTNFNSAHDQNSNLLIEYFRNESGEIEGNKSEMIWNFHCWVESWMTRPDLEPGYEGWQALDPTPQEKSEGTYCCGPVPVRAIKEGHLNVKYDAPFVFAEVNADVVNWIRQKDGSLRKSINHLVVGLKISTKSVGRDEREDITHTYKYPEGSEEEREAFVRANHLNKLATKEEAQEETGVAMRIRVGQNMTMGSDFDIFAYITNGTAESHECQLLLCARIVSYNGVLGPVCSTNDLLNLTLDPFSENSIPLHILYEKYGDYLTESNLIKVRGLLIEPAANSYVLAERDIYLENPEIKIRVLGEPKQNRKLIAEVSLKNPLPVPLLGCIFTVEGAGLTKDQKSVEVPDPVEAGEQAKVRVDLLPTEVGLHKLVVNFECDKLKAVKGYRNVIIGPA
The series can be described thus: cell-based or functional assay.

For series [2], the target named is T2, guinea pig liver transglutaminase (UniProt P08587).
T2 construct: Transglutaminase from guinea pig liver, Boc-L-Lys(Boc)-OH, and N-Boc-L-DOPA dicyclohexylammonium salt was purchased from Sigma Chemical Company; purchased Sigma Chemical Company (St. Louis, Mo.); host or cells: guinea pig liver (tissue-derived enzyme)
T2 sequence (P08587 1-690): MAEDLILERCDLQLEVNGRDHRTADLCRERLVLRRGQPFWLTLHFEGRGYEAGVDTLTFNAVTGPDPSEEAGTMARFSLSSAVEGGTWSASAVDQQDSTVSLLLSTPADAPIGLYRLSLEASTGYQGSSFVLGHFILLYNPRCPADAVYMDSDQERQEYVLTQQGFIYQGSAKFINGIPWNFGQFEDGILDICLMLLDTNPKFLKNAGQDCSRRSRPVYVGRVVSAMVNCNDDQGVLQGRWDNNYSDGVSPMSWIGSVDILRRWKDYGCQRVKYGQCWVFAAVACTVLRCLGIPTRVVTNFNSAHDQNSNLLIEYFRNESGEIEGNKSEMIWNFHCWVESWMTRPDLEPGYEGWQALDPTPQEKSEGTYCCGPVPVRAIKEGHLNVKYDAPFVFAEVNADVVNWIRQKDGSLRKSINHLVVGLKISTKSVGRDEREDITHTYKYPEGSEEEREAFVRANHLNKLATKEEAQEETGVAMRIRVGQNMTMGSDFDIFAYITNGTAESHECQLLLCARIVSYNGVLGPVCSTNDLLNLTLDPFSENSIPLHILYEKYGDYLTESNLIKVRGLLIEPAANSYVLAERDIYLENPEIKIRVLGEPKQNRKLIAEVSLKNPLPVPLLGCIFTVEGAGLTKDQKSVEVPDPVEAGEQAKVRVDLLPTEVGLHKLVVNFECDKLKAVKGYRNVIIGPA
Put plainly: Substrate specificity: TGase-catalysed cross-linking of peptide with dansyl labeled substrate, RP-HPLC. The series is classed as biochemical. The note with it: peptide concentration 0.05–50 mM, enzyme 0.05 U/ml, reaction time 30 min. The protocol: For acyl donor attention was focused on peptides containing two to about 5 contiguous glutaminyl (e.g., Gln residues), whereas for acyl acceptor a variety of residues were placed near or adjacent Lys. The peptides were assayed as TGase substrates by monitoring the rate of cross-linking reaction with a known dansyl labeled substrate. The use of fluorescently labeled compounds and RP-HPLC analysis with the aid of LC-ESI/MS, allowed for identification of products and comparison of the kinetic constants of the candidate peptides. The specificity (kcat/Km, app) values determined under identical experimental conditions reflect the relative specificity of the enzyme toward the substrates; peptides with higher specificities are better substrates for TGase enzyme, indicating the enzyme-catalyzed cross-linking reaction of that peptide will proceed more rapidly.
Substrate Specificity. […] All reaction products were characterized by LC-ESI/MS (Table 3) and quantitatively analyzed by RP-HPLC. Kinetic constants (Table 4a–b and FIG. 6) were calculated from two methods: fit of the initial rates versus substrate concentrations to the Michaelis-Menten equation using the SigmaPlot® 2000 program with Enzyme Kinetics Module (SPSS Inc., IL); and graphing of the kinetic data using the direct linear plot. […]

The target of series [3] is T3, DOPA-GQQQLG-NH2.
T3 chain: XGQQQLG

For series [4], the target named is T4, Ac-LKG-NH2.
T4 chain: LKG

For series [5], the target named is T5, Ac-KG-NH2.
T5 chain: KG

For series [6], the target named is T6, DOPA-LKG-NH2.
T6 chain: XLKG

In series [7] the target is T7, Ac-FKG-NH2.
T7 chain: FKG

Series [8] concerns the target T8, NH2-GQLKHLEQQEG-NH2.
T8 chain: GQLKHLEQQEG

For series [9], the target named is T9, Ac-GQQQLG-NH2.
T9 chain: GQQQLG

In series [10] the target is T10, DOPA-FKG-NH2.
T10 chain: XFKG

For series [11], the target named is T11, FKG-NH2.
T11 chain: FKG

Series [12] addresses T12, LKG-NH2.
T12 chain: LKG

In [1], DOPA-FKG-NH2 (peptide) gave a fold increase in specificity against Ac-FKG-NH2 of 2.4 fold and a fold increase in specificity against Ac-KG-NH2 of 100 fold.

As for DOPA-LKG-NH2 (peptide), in series [1], the fold increase in specificity against Ac-KG-NH2 turned out to be 100 fold and the fold increase in specificity against Ac-LKG-NH2 worked out at 2.4 fold.

In the case of “DOPA-Lys-Gly-NH2 ([Dopa]-Lys-Gly-NH2; N-terminus assumed; SMILES NCCCC[C@H](NC(=O)[C@@H](N)Cc1ccc(O)c(O)c1)C(=O)NCC(N)=O) [Peptide 4]”, the cross-linking product detection result in series [2] was “No cross-linking product was detected”.

B1: guinea pig liver transglutaminase (protein)
chain: T1 sequence (looked up)
B1: the Km, app in series [3] was determined as 0.367 mM; in series [4], 0.056 mM; in series [5] it was 0.872 mM; in series [6], 0.0195 mM; in series [7], 0.0469 mM; in [8] it was 0.593 mM. For the same molecule, the Km, app in series [9] was determined as 0.119 mM; in [10] it was 0.017 mM; in [11] it was 0.498 mM; in series [12] it was 0.609 mM. Moreover, the Vmax, app in series [3] is 7.8 mM/min; in series [4] it was 1.5 µM/min; in series [5], 1.02 µM/min; in [6], 1.28 µM/min; in series [7], 1.46 µM/min; in series [8], 12.5 mM/min. Moreover, the Vmax, app in series [9] was found to be 1.8 mM/min; in series [10] it was 1.25 µM/min; in series [11], 1.7 µM/min; in series [12] it was 1.64 µM/min. In addition, the kcat (as a rule, the number of substrate molecules converted per active site and unit of time at saturation) in series [3] was determined as 17.6 min⁻¹; in [4] it was 27 min⁻¹; in series [5], 9.2 min⁻¹; in [6] it was 23 min⁻¹; in series [7], 26.3 min⁻¹; in [8] it was 28.1 min⁻¹. In addition, the catalytic constant (kcat) was found to be 4 min⁻¹ in series [9], 22.5 min⁻¹ in [10], 30.6 min⁻¹ in series [11] and 29.5 min⁻¹ in series [12]. Moreover, the kcat/Km, app in [3] was 47.9 min⁻¹ mM⁻¹; in [4], 482 min⁻¹ mM⁻¹; in series [5], 10.6 min⁻¹ mM⁻¹; in [6], 1180 min⁻¹ mM⁻¹; in [7], 560 min⁻¹ mM⁻¹; in series [8], 47.3 min⁻¹ mM⁻¹. The kcat/Km, app in series [9] was found to be 34.1 min⁻¹ mM⁻¹; in series [10], 1320 min⁻¹ mM⁻¹; in series [11], 61.6 min⁻¹ mM⁻¹; in series [12], 48.4 min⁻¹ mM⁻¹. The “substrate properties (acyl donor)” value in series [3], in series [8] and in series [9] was “all three designed Gln peptides exhibiting good substrate properties” throughout.

As to Leu-Lys-Gly-NH2 [LKG-NH2], the “fold increase in specificity against Ac-KG-NH2” value in series [1] was around 5 fold.

Take Ac-Leu-Lys-Gly-NH2 [Ac-LKG-NH2]: the “fold increase in specificity against LKG-NH2” value in [1] is around 10 fold.

As to Ac-Phe-Lys-Gly-NH2 [Ac-FKG-NH2], the “fold increase in specificity against FKG-NH2” value in series [1] was around 10 fold.

Phe-Lys-Gly-NH2 [FKG-NH2]: the “fold increase in specificity against Ac-KG-NH2” value in series [1] is around 5 fold.
